Target: BclA N-terminal 35 amino acids fused to eGFP (Bacillus anthracis) (UniProt Q81JD7)
Assay: FRET or BRET

## BxpB-mCherry fusion (from UniProt S5W424 1-167) (natural protein)
  fold decrease of the eGFP signal (FRET), against BclA NTD-eGFP alone: 2.1 fold
  percent of FRET positive spores: 14.8%

— article PMC3044595
